# Measurements published in US20190177416A1 (NANOMAB TECHNOLOGY, published 2019).
# Biological target: T1, human PD-L1 protein (coated antigen) (human, UniProt Q9NZQ7 19-238, limits assumed)
# T1 construct: Construct not described; also called PD-L1 antigen; antigenic protein PD-L1
# Assay: PE-ELISA, crude extract on coated PD-L1
# Description: (1) From the cell culture dishes containing phage after 3-4 rounds of screening in Example 2, 1000 individual colonies were selected and inoculated into TB medium containing 100 μg/ml of ampicillin (1 liter of TB medium contains 2.3 g of potassium dihydrogen phosphate, 12.52 g of dipotassium hydrogen phosphate, 12 g of peptone, 24 g of yeast extract, 4 ml of glycerol), after growth to log phase, add a final concentration of […] of IPTG, culture at 28° C. overnight. (2) The crude antibody was obtained by the infiltration method, and the antibody was transferred to an antigen-coated ELISA plate and placed at room temperature for 1 hour. (3) Unbound antibody was washed away with PBST, and a mouse anti-HA tag antibody (anti-mouse anti-HA antibody, purchased from Beijing Kangwei Century Biotechnology Co., Ltd.) was added and placed at room temperature for 1 hour. (4) Unbound antibody was washed away with PBST, and anti-mouse alkaline phosphatase conjugate (goat anti-mouse alkaline phosphatase-labeled antibody, purchased from Amytech Co., Ltd.) was added and placed at room temperature for 1 hour. (5) Wash the unbound antibody with PBST, add alkaline phosphatase coloring solution, and read the absorbance at 405 nm on an ELISA apparatus. (6) When the OD value of the sample well is more than 3 times the OD value of the control well (Ratio+/−>3), it is judged as a positive clone hole. (7) The bacteria of the positive clone well were shaken in a LB liquid containing 100 μg per ml to extract a plasmid and perform sequencing.
# T1 sequence (Q9NZQ7 19-238 limits assumed): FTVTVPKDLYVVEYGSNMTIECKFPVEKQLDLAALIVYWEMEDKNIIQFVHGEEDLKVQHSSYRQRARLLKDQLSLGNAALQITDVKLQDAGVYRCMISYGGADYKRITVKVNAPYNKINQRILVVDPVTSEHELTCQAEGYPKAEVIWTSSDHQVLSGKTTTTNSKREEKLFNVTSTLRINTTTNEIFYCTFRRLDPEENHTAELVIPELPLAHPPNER
row,Binder,OD ratio (experimental group (A405 nm)/control group (A405 nm))
1,"SEQ ID NO 44 (VHH, pMECS-expressed; also called VHH numbered 44) VHH: QVQLQESGGGSVRTGGSLRLSCAASTSIYSLNYMAWFSQAPGKGREGVAAVYIDDGRPYYADHVKGRFTISLDTAKNTVYLQMNSLKPEDTAMYYCAAAPGPLSRNYWYTSANYDYWGQGTQVTVSS",> 20
2,"SEQ ID NO 82 (VHH, pMECS-expressed; also called VHH numbered 82) VHH: QVQLQESGGGSVQTGGSLRLSCTASTSIYSNNYMAWFSQAPGKGREGVAAVYIDDGRPYYADSVKGRFTISLDSAKNTVYLQMNSLKPEDTAMYYCAAAPGPLSRNYWYTSANYDYWGQGTQVTVSS",> 20
3,"SEQ ID NO 75 (VHH, pMECS-expressed; also called VHH numbered 75) VHH: QVQLQESGGGSVQTGGSLRLSCAASTSIYSNNYMAWFRQAPGKGREGVAAVYIGDGRPYYADSAKGRFTISLDSAKNTVYLHMNSLKPEDTAMYYCAAAPGPLSRHYWYTSANYDYWGPGTQVTVSS",> 20
4,"SEQ ID NO 49 (VHH, pMECS-expressed; also called VHH numbered 49) VHH: QVQLQESGGGSVQTGGSLRLSCAASTSIYSINYMAWFSQAPGKGREGVAAVYIDDGRPYYADSVKGRFTISLDSAKNTVYLQMNSLKPEDTAMYYCAAAPGPLSRNYWYTSANYDYWGQGTQVTVSS",> 20
5,"SEQ ID NO 48 (VHH, pMECS-expressed; also called VHH numbered 48) VHH: QVQLQESGGGSVQTGGSLRLSCAASTSIYSNNYMAWFSQAPGKGREGVAAVYIDDGRTYYADSVKGRFTISLDSAKNTVYLQMNSLKPEDTAMYYCAAAPGPLSHNYWYASANYDYWGQGTQVTVSS",> 20
6,"SEQ ID NO 77 (VHH, pMECS-expressed; also called VHH numbered 77) VHH: QVQLQESGGGSVQTGGSLRLSCTASTSIYSNNYMAWFSQAPGKGREGVAAVYIDDGRPYYADSVKGRFTISLDSAKNTVYLQMNSLKPEDTAMYYCAAAPGPLSRNYWYTSANYDYWGQGTQVTVSS",> 20
7,"SEQ ID NO 62 (VHH, pMECS-expressed; also called VHH numbered 62) VHH: QVQLQESGGGSVQAGGSLRLSCAASTSIYSNNYMAWFRQTPGKGREGVAAVYIDDGRPYYADSVKGRFTISLDSAKNTVYLQMNSLKPEDTAMYYCAAAPGPLSHDYWYTSANYDYWGPGTQVTVSS",> 20
8,"SEQ ID NO 56 (VHH, pMECS-expressed; also called VHH numbered 56) VHH: QVQLQESGGGSVQTGGSLRLSCAASPSIYSANYMAWFSQAPGKGREGVAAVYIGDGRPYYADSVKGRFTISLDSAKSTVYLQMNSLKPEDTAMYYCAAAPGPLSHNYWYTSANYDYWGQGTQVTVSS",> 20
9,"SEQ ID NO 69 (VHH, pMECS-expressed; also called VHH numbered 69) VHH: QVQLQESGGGSVQTGGSLRLSCAASTSIYSNNYMAWFSQAPGKGREGVAAVYIGDGRPYYADSVKGRFTISLDSAKNTVYLQMNSLKPEDTAMYYCAAAPGPLSHNYWYTSANYDYWGQGTQVTVSS",> 20
10,"SEQ ID NO 64 (VHH, pMECS-expressed; also called VHH numbered 64) VHH: QVQLQESGGGSVQTGGSLRLSCAASTSIYSNNYMAWFSQAPGKGREGVAAVYIDDGRPYYADSVKGRFTISLDSAKNTVYLQMNSLKPEDTAMYYCAATPGPLSQHYWYTSANYDYWGQGTQVTVSS",> 20
11,"SEQ ID NO 76 (VHH, pMECS-expressed; also called VHH numbered 76) VHH: QVQLQESGGGSVQTGGSLRLSCAASTSIYSNNYMAWFRQVPGKGREGVAAVYIDDGRTYYADSVKGRFTISLDSAKNTVYLQMNSLKPEDTAMYYCAAAPGPLSRHYWYTSANYDYWGPGTQVTVSS",> 20
12,"SEQ ID NO 54 (VHH, pMECS-expressed; also called VHH numbered 54) VHH: QVQLQESGGGSVQTGGSLRLSCAPSTSIYDNNYMAWFSQAPGKGREGVAAIYIDDGRPYYADSVKGRFTISLDSAKNTVYLQMNSLKPEDTAMYYCAAAPGPLSHNYWYTSANYDYWGQGTQVTVSS",> 20
13,"SEQ ID NO 51 (VHH, pMECS-expressed; also called VHH numbered 51) VHH: QVQLQESGGGSVQTGGSLRLSCTASTSIYSNSYMAWFSQAPGKGREGVAAVYIDDGRPYYADSVKGRFTISLDSAKNTVYLQMNSLKPEDTAMYYCAAAPGPLSRHYWYTSANYDYWGQGTQVTVSS",> 20
14,"SEQ ID NO 81 (VHH, pMECS-expressed; also called VHH numbered 81) VHH: QVQLQESGGGSVQTGGSLRLSCAASTSIYSNNYMAWFSQAPGKGREGVAAVYIDDGRTYYADSVKGRFTISLDSAKNTVYLQMNSLKPEDTAMYYCAAAPGPLSRNYWYTSANYDYWGQGTQVTVSS",> 20
15,"SEQ ID NO 46 (VHH, pMECS-expressed; also called VHH numbered 46) VHH: QVQLQESGGGSVQTGGSLRLSCAASTSIDSNNYMAWFRQAPGKGREGVAAVYIDDGRPYYADSVKGRFTISLDSAKNTVYLQMNSLKPEDTAMYYCAAAPGPLSRHYWYTSANYDYWGPGTQVTVSS",> 20
16,"SEQ ID NO 68 (VHH, pMECS-expressed; also called VHH numbered 68) VHH: QVQLQESGGGSVQTGGSLRLSCTCSTSIYSNNYMAWFSQAPGKGREGVAAVYIGDGRPYYADSVKGRFTISLDSAKNTVYLQMNSLKPEDTAMYYCAAAPGPLSHNYWYTSANYDYWGQGTQVTVSS",> 20
17,"SEQ ID NO 63 (VHH, pMECS-expressed; also called VHH numbered 63) VHH: QVQLQESGGGSVQTGGSLRLSCAASTSIYSNNYMAWFSQAPGKGREGVAAVYIDDGRPYYADSVKGRFTISLDSAKNTVYLQMNRLKPEDTAMYYCAAAPGPLSHNYWYTSANYDYWGQGTQVTVSS",> 20
18,"SEQ ID NO 80 (VHH, pMECS-expressed; also called VHH numbered 80) VHH: QVQLQESGGGSVQTGGSLRLSCVASTSIYSNNYMAWFSQAPGKGREGVAAVYIDDGRPYYADSVKGRFTISLDSAKNTVYLQMNSLKPEDTAMYYCAAAPGPLSRSYWYTSANYDYWGQGTQVTVSS",> 20
19,"SEQ ID NO 47 (VHH, pMECS-expressed; also called VHH numbered 47) VHH: QVQLQESGGGSVQTGGSLRLSCTASTSIYNNNYMAWFSQSPGKGREGVAAVYMDDGRPYYADSVKGRFTISLDSAKNTMYLQMNSLKPEDTAMYYCAAAPGPLSRNYWYTSANYDYWGQGTQVTVSS",> 20
20,"SEQ ID NO 66 (VHH, pMECS-expressed; also called VHH numbered 66) VHH: QVQLQESGGGSVQTGGSLRLSCAASTSIYNNNYMAWFSQAPGKGREGVAAVYVGDGRTYYADSVKGRFTISLDSAKNTVYLQMNSLKPEDTAMYYCAAAPGPLSHNYWYTSANYDYWGQGTQVTVSS",> 20
21,"SEQ ID NO 60 (VHH, pMECS-expressed; also called VHH numbered 60) VHH: QVQLQESGGGSVQTGGSLRLSCAASTSIYSMNYMAWFSQAPGKGREGVAAVYIEDGRPYYADSVKGRFTISPDRAKNTVYLQMNSLKPEDTAMYYCAAAPGPLSRNYWYTSANYDYWGQGTQVTVSS",> 20
22,"SEQ ID NO 53 (VHH, pMECS-expressed; also called VHH numbered 53) VHH: QVQLQESGGGSVQTGGSLRLSCAASTSIYSNNYMAWFSQAPGKGREGVAAVYIDDGRPYYADSVKGRFTISLDSAKNTVYLQMNSLKPEDTAMYYCAAAPGPLSRNYWYTSANYDYWGQGTQVTVSS",> 20
23,"SEQ ID NO 55 (VHH, pMECS-expressed; also called VHH numbered 55) VHH: QVQLQESGGGSVQTGGSLRLSCVASTSIFSNNYMAWFSQAPGKGREGVAAVYIGDGRPYYADSVKGRFTISLDSAKNTVYLQMNSLKPEDTAMYYCAAAPGPLSHNYWYTSANYDYWGQGTQVTVSS",> 20
24,"SEQ ID NO 78 (VHH, pMECS-expressed; also called VHH numbered 78) VHH: QVQLQESGGGSVQTGGSLRLSCAASTSLYSYNYMAWFSQAPGKGREGVAAVYVGDGRPYYADSVKGRFTISLDSAKNTVYLQMNSLKPEDTAMYYCAAAPGPLSHNYWYTSANYDYWGQGTQVTVSS",> 20
25,"SEQ ID NO 52 (VHH, pMECS-expressed; also called VHH numbered 52) VHH: QVQLQESGGGSVQTGGSLRLSCAASTSIYSNNYMAWFRQAPGKGREGVAAVYVDDGRPYYADSVKGRFTISRDSAKNTVYLQMNSLKPEDTAMYYCAAAPGPLSRHYWYTSANYDYWGPGTQVTVSS",> 20
26,"SEQ ID NO 57 (VHH, pMECS-expressed; also called VHH numbered 57) VHH: QVQLQESGGGSVQTGGSLRLSCAASTSIYSINYMAWFSQAPGKGREGVAAVYIDDGRPYYADSVKGRFTISLDSAKNTVYLQMNSLKSEDTAMYYCAAAPGPLSRNYWYTSANYDYWGQGTQVTVSS",> 20
27,"SEQ ID NO 67 (VHH, pMECS-expressed; also called VHH numbered 67) VHH: QVQLQESGGGSVQTGGSLRLSCTASTSIYSNNYMAWFSQAPGKGREGVAAVYIDDGRPYYADSVKGRFTISLDSAKNTVYLQMNSLKPEDTAMYYCAAAPGPLSRNYWYTSANYDYWGQGTQVTVSS",> 20
28,"SEQ ID NO 59 (VHH, pMECS-expressed; also called VHH numbered 59) VHH: QVQLQESGGGSVQTGGSLRLSCACSTSIYSNNYMAWFSQAPGKGREGVAAVYIGDGRPYYTDSVKGRFTISLDSAKNTLYLQMNSLKPEDTAMYYCAAAPGPLSHNYWYTSANYDYWGQGTQVTVSS",> 20
